Laboratory results published in IntAct's records for PubMed 28424519.

The substances below were run against snf2_yeast SNF2 (UniProt P22082).
Sequence of UniProt P22082 (P22082 whole entry): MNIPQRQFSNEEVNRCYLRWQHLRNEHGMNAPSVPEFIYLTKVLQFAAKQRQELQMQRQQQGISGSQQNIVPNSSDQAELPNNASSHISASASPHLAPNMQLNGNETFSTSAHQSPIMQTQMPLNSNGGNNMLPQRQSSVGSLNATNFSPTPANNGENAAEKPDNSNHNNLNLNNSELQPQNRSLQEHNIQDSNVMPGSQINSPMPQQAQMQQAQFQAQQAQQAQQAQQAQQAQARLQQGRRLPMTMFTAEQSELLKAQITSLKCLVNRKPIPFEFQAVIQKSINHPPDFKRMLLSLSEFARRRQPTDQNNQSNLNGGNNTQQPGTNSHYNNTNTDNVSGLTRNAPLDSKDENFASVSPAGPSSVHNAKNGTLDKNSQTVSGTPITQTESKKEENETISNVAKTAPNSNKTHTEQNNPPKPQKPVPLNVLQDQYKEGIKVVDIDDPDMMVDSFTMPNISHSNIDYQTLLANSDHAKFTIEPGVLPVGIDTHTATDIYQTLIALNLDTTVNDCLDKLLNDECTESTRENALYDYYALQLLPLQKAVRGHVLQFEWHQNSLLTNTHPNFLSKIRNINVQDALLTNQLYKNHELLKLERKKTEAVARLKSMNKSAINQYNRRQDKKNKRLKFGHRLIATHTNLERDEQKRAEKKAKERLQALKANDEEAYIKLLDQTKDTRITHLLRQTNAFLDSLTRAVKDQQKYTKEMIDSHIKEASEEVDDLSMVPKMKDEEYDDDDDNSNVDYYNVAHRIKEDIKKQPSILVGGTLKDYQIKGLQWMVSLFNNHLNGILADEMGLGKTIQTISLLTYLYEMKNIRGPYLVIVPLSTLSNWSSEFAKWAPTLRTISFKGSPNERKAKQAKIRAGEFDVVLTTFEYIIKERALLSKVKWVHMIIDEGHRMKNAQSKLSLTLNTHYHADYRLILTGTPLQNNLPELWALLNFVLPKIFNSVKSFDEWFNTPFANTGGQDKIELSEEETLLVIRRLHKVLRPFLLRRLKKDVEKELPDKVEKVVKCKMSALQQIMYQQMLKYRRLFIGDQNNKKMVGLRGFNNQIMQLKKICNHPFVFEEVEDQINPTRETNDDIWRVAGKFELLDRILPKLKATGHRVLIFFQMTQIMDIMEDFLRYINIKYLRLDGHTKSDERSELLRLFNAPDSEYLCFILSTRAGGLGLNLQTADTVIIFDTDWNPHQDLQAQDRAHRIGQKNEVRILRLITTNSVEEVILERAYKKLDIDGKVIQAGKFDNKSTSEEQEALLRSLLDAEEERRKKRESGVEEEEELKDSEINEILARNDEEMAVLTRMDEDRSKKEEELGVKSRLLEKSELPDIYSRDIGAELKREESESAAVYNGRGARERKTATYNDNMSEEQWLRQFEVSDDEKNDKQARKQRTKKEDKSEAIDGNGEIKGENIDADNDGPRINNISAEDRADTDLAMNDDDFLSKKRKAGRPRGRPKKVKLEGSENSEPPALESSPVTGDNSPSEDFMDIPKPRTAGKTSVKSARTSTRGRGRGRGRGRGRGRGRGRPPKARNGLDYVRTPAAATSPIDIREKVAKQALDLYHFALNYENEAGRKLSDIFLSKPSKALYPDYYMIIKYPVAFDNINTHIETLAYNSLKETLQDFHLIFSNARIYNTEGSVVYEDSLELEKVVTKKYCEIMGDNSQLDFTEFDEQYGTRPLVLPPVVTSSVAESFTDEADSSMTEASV

effect of a mutation on the interaction	Substance
decreasing interaction	Histone H4 (Saccharomyces cerevisiae) (from UniProt P02309) R20A
decreasing interaction	Histone H4 (Saccharomyces cerevisiae) (from UniProt P02309) R18A
decreasing interaction	Histone H4 (Saccharomyces cerevisiae) (from UniProt P02309) K17A
decreasing interaction	Histone H4 (Saccharomyces cerevisiae) (from UniProt P02309) K17A;R18A;R20A
